Experimental data as given in the supplement of paper PMC10567573.

B1: ALDH8A1 (parent)
chain: RVAKKLQSGLVWTNCWLIRELNLP

Variants of: B1
Experiment: protein stability index of a GFP-peptide fusion (GPS, HEK-293T) (PSI 1-6); higher = more stable
Conditions: c terminus: a fixed tail appended
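Note: lentivirally expressed fusions sorted by FACS into six bins by GFP to DsRed ratio, PSI derived from sequencing read proportions per bin multiplied by bin number.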

Row | Variant | protein stability index
1 | RVAKKLQSGLVWTNCHLIRELNLP | 1.92
2 | RVAKKLQSGLVWTNCDLIRELNLP | 1.63
3 | RVAKKLQSGLVWTNCMLIRELNLP | 3.3
4 | RVAKKLQSGLVWTNCALIRELNLP | 2.71
5 | RVAKKLQSGLVWTNCGLIRELNLP | 1.32
6 | RVAKKLQSGLVWENCWLIRELNLP | 1.95
7 | RVAKKLQSGLVWKNCWLIRELNLP | 2.59
8 | RVAKKLQSGLVWHNCWLIRELNLP | 1.57
9 | RVAKKEQSGLVWTNCWLIRELNLP | 2.26
10 | RVAKKCQSGLVWTNCWLIRELNLP | 3.03
11 | RVAKKQQSGLVWTNCWLIRELNLP | 2.86
12 | RVAKKAQSGLVWTNCWLIRELNLP | 2.04
13 | RVAKKPQSGLVWTNCWLIRELNLP | 1.95
14 | RVAKKMQSGLVWTNCWLIRELNLP | 3.2
15 | RVAKKKQSGLVWTNCWLIRELNLP | 2.56
16 | RVAKKTQSGLVWTNCWLIRELNLP | 2.31
17 | RVAKKLQSGLVWTVCWLIRELNLP | 1.22
18 | RVAKKLQSGLVWTPCWLIRELNLP | 2.06
19 | RVAKKLQSGLVWTKCWLIRELNLP | 2.73
20 | RVAKKLQSGLVWTYCWLIRELNLP | 1.59
21 | RVAKKLQSGLVWTICWLIRELNLP | 1.2
22 | RVAKKLQSGLVWTMCWLIRELNLP | 2.04
23 | RVAKKLQSGLVWTDCWLIRELNLP | 2.19
24 | RVAKKLQSGLVWTFCWLIRELNLP | 2.33

Row | Variant | protein stability index
25 | RVAKKLQSGLVWTLCWLIRELNLP | 2.19
26 | RVAKKLQSGLVWTNCWLIRELNLS | 2.25
27 | RVAKKLQSGLVWTNCWLIRELNLA | 2.76
28 | RVAKKLQSGLVWTNCWLIRELNLW | 3.34
29 | RVAKKLQSGLVWTNCWLIRELNLY | 3.16
30 | RVAKKLQSGLVWTNCWLIRELNLT | 2.19
31 | RVAKKLQSGLVWTNCWLIREHNLP | 2.79
32 | RVAKKLQSGLVWTNCWLIREDNLP | 3.05
33 | RVAKKLQSGLVWTNCWLIREGNLP | 5.81
34 | RVAKKLQSGLVWTNCWLIREWNLP | 2.9
35 | RVAKKLQSGLVWTNCWLTRELNLP | 2.57
36 | RVAKKLQSGLVWTNCWLSRELNLP | 3.62
37 | RVAKKLQSGLVWTNCWLYRELNLP | 1.89
38 | RVAKKLQSGLVWTNCWLKRELNLP | 4.38
39 | RVAKKLQSGLVWTNCWLPRELNLP | 1.3
40 | RVAKKLQSGLVWTNCWLMRELNLP | 2.47
41 | RVAKKLQSGLVWTNCWLHRELNLP | 1.89
42 | RVAKKLQSGLVWTNCWLNRELNLP | 2.46
43 | RVAKKLQSGLVWTNCWLDRELNLP | 1.73
44 | RVAKKLQSGLVWTNCWLERELNLP | 2.2
45 | RVAKKLQSGLVWTNCWLIPELNLP | 1.53
46 | RVAKKLQSGLVWTNCWLIFELNLP | 1.5
47 | RVAKKLQSGLVWTNCWLILELNLP | 2.18
48 | RVAKKLQSGLVWTNCWLISELNLP | 2.44

Row | Variant | protein stability index
49 | RVAKKLQSGLVWTNCWLINELNLP | 3.94
50 | RVAKKLYSGLVWTNCWLIRELNLP | 2.48
51 | RVAKKLMSGLVWTNCWLIRELNLP | 1.85
52 | RVAKKLNSGLVWTNCWLIRELNLP | 2.29
53 | RVAKKLLSGLVWTNCWLIRELNLP | 4.65
54 | RVAKKLWSGLVWTNCWLIRELNLP | 2.85
55 | RVAKKLKSGLVWTNCWLIRELNLP | 2.17
56 | RVAKKLPSGLVWTNCWLIRELNLP | 2.97
57 | RVAKKLQSGLVWTNCWLIRELGLP | 2.7
58 | RVAKKLQSGLVWTNCWLIRELYLP | 3.15
59 | RVAKKLQSGLVWTNCWLIRELTLP | 2.17
60 | RVAKKLQSGLVWTNCWLIRELKLP | 4.74
61 | RVAKKLQSGLVWTNCWLIRELPLP | 3.03
62 | RVAKKLQSGLVWTNCWLIRELILP | 3.01
63 | RVAKKLQSGLVWTNCWLIRELDLP | 5.55
64 | RVAKKLQSGTVWTNCWLIRELNLP | 2.97
65 | RVAKKLQSGRVWTNCWLIRELNLP | 2.47
66 | RVAKKLQSGDVWTNCWLIRELNLP | 1.51
67 | RVAKKLQHGLVWTNCWLIRELNLP | 1.63
68 | RVAKKLQTGLVWTNCWLIRELNLP | 1.94
69 | RVAKKLQIGLVWTNCWLIRELNLP | 1.71
70 | RVAKKLQVGLVWTNCWLIRELNLP | 3.65
71 | RVAKKLQAGLVWTNCWLIRELNLP | 3.67
72 | RVAKKLQEGLVWTNCWLIRELNLP | 2.9

Row | Variant | protein stability index
73 | RVAKKLQSGLVWTNCWEIRELNLP | 2.77
74 | RVAKKLQSGLVWTNCWDIRELNLP | 3.58
75 | RVAKKLQSGLVWTNCWNIRELNLP | 1.33
76 | RVAKKLQSGLVWTNCWQIRELNLP | 1.32
77 | RVAKKLQSGLVWTNCWPIRELNLP | 1.68
78 | RVAKKLQSGLVWTNCWRIRELNLP | 3.13
79 | RVAKKLQSGLVWTNCWIIRELNLP | 1.08
80 | RVAKKLQSGLVWTNCWFIRELNLP | 2.6
81 | RVAKKLQSGLVWTNCWKIRELNLP | 1.34
82 | RVAKKLQSGLVWTNPWLIRELNLP | 2.17
83 | RVAKKLQSGLVWTNHWLIRELNLP | 3.92
84 | RVAKKLQSGLVWTNIWLIRELNLP | 2.44
85 | RVAKKLQSGLVWTNLWLIRELNLP | 2.64
86 | RVAKKLQSGLVWTNAWLIRELNLP | 2.39
87 | RVAKKLQSGLVWTNRWLIRELNLP | 3.14
88 | RVAKKLQSGLVWTNEWLIRELNLP | 1.8
89 | RVAKKLQSGLVWTNVWLIRELNLP | 2.65
90 | RVAKKLQSGLWWTNCWLIRELNLP | 4.66
91 | RVAKKLQSGLDWTNCWLIRELNLP | 2.32
92 | RVAKKLQSGLLWTNCWLIRELNLP | 2.91
93 | RVAKKLQSGLEWTNCWLIRELNLP | 2.29
94 | RVAKKLQSGLPWTNCWLIRELNLP | 2.11
